Consider five molecules from patent US20260092115A1 (Chugai, published 2026).

Substitutions are numbered along the chain they refer to.

In assay [1] the target is T1, human FcRn (human, UniProt P55899 24-290; P61769 21-119).
T1 construct: Prepared by the method of WO 2010/107110; also called hFcRn
Kind of assay: KD of 04H1637-G1m/04L1610-lam1 divided by KD of this antibody; SPR pH 6.0. On the procedure: The interaction between the generated antibodies and human FcRn was analyzed by the following method using Biacore T200. 50 mM Na-Phosphate, 150 mM NaCl, 0.05% Tween20 (pH 6.0) was used as the running buffer, and the assay was performed at 25° C. For the sensor chip, Series S SA (GE Healthcare) chips onto which CaptureSelect Human Fab-lambda Kinetics Biotin Conjugate (Thermo Fisher Scientific) was immobilized were used. The antibodies of interest were captured onto these chips and FcRn diluted in the running buffer was allowed to interact with them. Chips were regenerated with 10 mM Glycine-HCl (pH 1.5) and 25 mM NaOH, and assay was performed by repeatedly capturing antibodies. The dissociation constant for FcRn of each antibody was calculated using the steady state model, using Biacore T200 Evaluation Software 2.0.
“Relative value to KD between G1m and hFcRn” and “Relative value to KD between G1m and hFcγRs” are values obtained by dividing the KD value of 04H1637-G1m/04L1610-lam1 for hFcRn and for each FcγR by the KD value of each variant, respectively. “Relative binding amount” indicates the value obtained by dividing the binding amount of each variant to FcγRIIb by the binding amount of 04H1637-G1m/04L1610-lam1. […] It was shown that all of the generated heterodimerized antibodies had enhanced binding to FcγRIIa and FcγRIIIa as compared with 04H1637-G1m/04L1610-lam1 which has the constant region of native human IgG1. Furthermore, 04H1637-Kn462/04L1610-lam1//04H1637-H1441/04L1610-lam1, 04H1637-Kn462/04L1610-lam1//04H1637-H1445/04L1610-lam1, and 04H1637-Kn461/04L1610-lam1//04H1637-H1443/04L1610-lam1 were all shown to have enhanced binding to FcγRIIa compared to 04H1637-Kn125/04L1610-lam1//04H1637-H1076/04L1610-lam 1 which has the Fc region variant reported in WO 2013/002362.

Assay [2] concerns the target T2, human FcγRIIIa, allotype V158, extracellular domain, His-tagged (human, UniProt P08637 17-208).
T2 construct: extracellular domain; also called hFcγR IIIa V
Kind of assay: KD of 04H1637-G1m/04L1610-lam1 divided by KD of this antibody; SPR pH 7.4. How it is done:
(§1) The interaction between the generated antibodies and human FcγRs was analyzed by the following method using Biacore T200. 50 mM Na-Phosphate, 150 mM NaCl, 0.05% Tween20 (pH 7.4) was used as the running buffer, and the assay was performed at 25° C. For the sensor chips, Series S SA (GE Healthcare) chips onto which CaptureSelect Human Fab-lambda Kinetics Biotin Conjugate (Thermo Fisher Scientific) was immobilized were used. The antibodies of interest were captured onto these chips and each FcγR diluted in the running buffer was allowed to interact with them. Chips were regenerated with 10 mM Glycine-HCl (pH 1.5) and 25 mM NaOH, and assay was performed by repeatedly capturing antibodies. The dissociation constants KD (mol/L) for FcγRs of each antibody were calculated using Biacore T200 Evaluation Software 2.0, using the 1:1 Langmuir binding model for FcγRIa and FcγRIIIa and the steady state affinity model for FcγRIIa. For FcγRIIb, the binding amount of FcγRIIb per unit amount of antibody was calculated by correcting the binding amount of FcγRIIb obtained from the sensorgram obtained by the measurement with the amount of antibody captured onto the chip surface.
(§2) “Relative value to KD between G1m and hFcRn” and “Relative value to KD between G1m and hFcγRs” are values obtained by dividing the KD value of 04H1637-G1m/04L1610-lam1 for hFcRn and for each FcγR by the KD value of each variant, respectively. “Relative binding amount” indicates the value obtained by dividing the binding amount of each variant to FcγRIIb by the binding amount of 04H1637-G1m/04L1610-lam1. […] It was shown that all of the generated heterodimerized antibodies had enhanced binding to FcγRIIa and FcγRIIIa as compared with 04H1637-G1m/04L1610-lam1 which has the constant region of native human IgG1.

For assay [3], the target named is T3, human FcγRIa extracellular domain, His-tagged (human, UniProt P12314 16-292).
T3 construct: also called hFcγR Ia
T3 sequence (P12314 16-292): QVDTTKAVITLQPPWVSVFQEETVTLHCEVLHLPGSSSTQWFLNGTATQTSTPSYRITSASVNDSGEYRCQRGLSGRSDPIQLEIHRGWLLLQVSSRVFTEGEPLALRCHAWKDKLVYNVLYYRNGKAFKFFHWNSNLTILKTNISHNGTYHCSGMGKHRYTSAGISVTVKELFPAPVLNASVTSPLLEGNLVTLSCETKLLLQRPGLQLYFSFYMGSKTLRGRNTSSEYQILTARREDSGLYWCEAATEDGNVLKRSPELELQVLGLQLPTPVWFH
The description is as above. How it is done:
as §1, §2

Assay [4] has as its target T4, human FcγRIIIa, allotype F158, extracellular domain, His-tagged (human, UniProt P08637 17-208).
T4 construct: extracellular domain; also called hFcγR IIIa F
The assay is described as above. On the procedure: as §1, §2

Assay [5] addresses T5, human FcγRIIa, type R, extracellular domain, His-tagged (human, UniProt P12318 34-217).
T5 construct: extracellular domain; also called hFcγR IIa R
T5 sequence (looked up): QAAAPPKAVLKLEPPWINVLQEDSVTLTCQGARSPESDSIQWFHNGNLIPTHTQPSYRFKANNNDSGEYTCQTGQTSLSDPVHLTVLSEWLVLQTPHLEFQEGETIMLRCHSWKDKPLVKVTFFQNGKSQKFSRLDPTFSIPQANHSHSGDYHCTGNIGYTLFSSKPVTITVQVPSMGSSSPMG
The assay is described as above. On the procedure: as §1, §2

Assay [6] addresses T6, human FcγRIIa, type H, extracellular domain, His-tagged (human, UniProt P12318 34-217).
T6 construct: extracellular domain; also called hFcγR IIa H
T6 sequence (looked up): T5 sequence (looked up) with R134H
The description is as above. On the procedure:
as §1, §2

Assay [7] concerns the target T7, human FcγRIIb extracellular domain, His-tagged (human, UniProt P31994 43-217).
T7 construct: extracellular domain; also called hFcγR IIb
T7 sequence (looked up): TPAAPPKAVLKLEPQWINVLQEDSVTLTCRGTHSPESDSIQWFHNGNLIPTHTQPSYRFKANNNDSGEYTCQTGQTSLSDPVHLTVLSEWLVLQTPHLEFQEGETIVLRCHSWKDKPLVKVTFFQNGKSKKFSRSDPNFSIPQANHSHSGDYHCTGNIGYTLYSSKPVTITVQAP
Kind of assay: SPR Biacore T200, 25C, pH 7.4; FcγRIIb at 1000 nM, corrected by captured antibody. How it is done: as §1
(Surface plasmon resonance follows binding to a sensor surface in real time, without labels.)

The target of assay [8] is T7, human FcγRIIb extracellular domain, …. Kind of assay: binding amount of this antibody divided by that of 04H1637-G1m/04L1610-lam1; SPR pH 7.4. How it is done:
as §1, §2

T2 sequence (P08637 17-208 F176V): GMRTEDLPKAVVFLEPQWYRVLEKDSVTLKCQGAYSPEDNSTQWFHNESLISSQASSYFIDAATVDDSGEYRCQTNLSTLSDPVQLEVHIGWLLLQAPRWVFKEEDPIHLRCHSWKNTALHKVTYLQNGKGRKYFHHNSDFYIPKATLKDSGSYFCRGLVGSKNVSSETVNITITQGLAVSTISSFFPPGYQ
T4 sequence (P08637 17-208): as the sequence (P08637 17-208 F176V) above, with V160F counted along it
T1 sequence (P55899 24-290 limits assumed, chain 1 of 2): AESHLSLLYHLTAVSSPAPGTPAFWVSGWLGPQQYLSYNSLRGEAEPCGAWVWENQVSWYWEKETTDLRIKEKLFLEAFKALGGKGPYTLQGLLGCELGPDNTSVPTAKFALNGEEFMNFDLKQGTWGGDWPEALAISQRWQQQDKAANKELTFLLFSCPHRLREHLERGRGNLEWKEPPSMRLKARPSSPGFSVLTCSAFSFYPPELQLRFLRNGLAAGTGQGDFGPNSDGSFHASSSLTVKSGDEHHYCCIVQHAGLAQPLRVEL
T1 sequence (P61769 21-119 limits assumed, chain 2 of 2): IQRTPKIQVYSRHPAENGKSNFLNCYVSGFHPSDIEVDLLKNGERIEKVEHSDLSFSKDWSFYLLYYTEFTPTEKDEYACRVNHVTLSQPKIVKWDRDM

B1: 04H1637-G1m/04L1610-lam1 (antibody, human IgG1, lambda)
heavy: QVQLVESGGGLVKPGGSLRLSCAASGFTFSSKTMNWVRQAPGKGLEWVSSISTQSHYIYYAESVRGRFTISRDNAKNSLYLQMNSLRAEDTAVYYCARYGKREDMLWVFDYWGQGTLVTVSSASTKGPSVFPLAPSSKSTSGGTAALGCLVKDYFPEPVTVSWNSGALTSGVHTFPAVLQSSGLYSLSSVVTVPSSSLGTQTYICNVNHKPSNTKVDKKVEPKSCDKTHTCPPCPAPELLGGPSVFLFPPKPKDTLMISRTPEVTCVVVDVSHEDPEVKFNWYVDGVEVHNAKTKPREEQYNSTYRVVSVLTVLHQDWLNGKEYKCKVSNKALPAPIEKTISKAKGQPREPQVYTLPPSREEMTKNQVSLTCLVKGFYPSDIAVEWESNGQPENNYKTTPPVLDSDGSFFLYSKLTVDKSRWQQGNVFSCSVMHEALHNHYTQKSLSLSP
light: QSALTQPPSASGSPGQSVTISCEGPSTGVGDYNWVHWYQQHPGKAPKLMIYFTSKKPSGVPDRFSGSKSGNTASLTVSGLQAEDEADYYCQTYAAPLGPMFGGGTKLTVLGQPKAAPSVTLFPPSSEELQANKATLVCLISDFYPGAVTVAWKADSSPVKAGVETTTPSKQSNNKYAASSYLSLTPEQWKSHRSYSCQVTHEGSTVEKTVAPTECS
For the molecule B1, in assay [1], the “Relative value to KD between G1m and hFcRn” value turned out to be 1 ratio. Moreover, the “Relative value to KD between G1m and hFcγRs” value in assay [2], in assay [3], in assay [4], in assay [5] and in assay [6] was 1 ratio each time. Further, the Binding amount in assay [7] is 0.008 RU per RU of captured antibody. Besides, the Relative binding amount in assay [8] worked out at 1 ratio.

B2: 04H1637-Kn462/04L1610-lam1//04H1637-H1441/04L1610-lam1 (antibody, human IgG1, lambda)
heavy 1: QVQLVESGGGLVKPGGSLRLSCAASGFTFSSKTMNWVRQAPGKGLEWVSSISTQSHYIYYAESVRGRFTISRDNAKNSLYLQMNSLRAEDTAVYYCARYGKREDMLWVFDYWGQGTLVTVSSASTKGPSVFPLAPSSKSTSGGTAALGCLVKDYFPEPVTVSWNSGALTSGVHTFPAVLQSSGLYSLSSVVTVPSSSLGTQTYICNVNHKPSNTKVDKKVEPKSCDKTHTCPPCPAPEFQWGPMVFLFPPKPKDVLMISRTPEVTCVVVDVSDEEPEVKFNWYVDGVEVHNAKTKPREEQYNATYRVVSVLPVLHQDWLNGKEYKCKVSNDALPAPIEKTISKAKGQPREPQVCTLPPSRDELTKNQVSLWCLVKGFYPSDIAVEWESNGQPENNYKTTPPVLDSDGSFFLYSKLTVDKSRWQQGNVFSCSVMHEALHNHYTQKSLSLSP
heavy 2: QVQLVESGGGLVKPGGSLRLSCAASGFTFSSKTMNWVRQAPGKGLEWVSSISTQSHYIYYAESVRGRFTISRDNAKNSLYLQMNSLRAEDTAVYYCARYGKREDMLWVFDYWGQGTLVTVSSASTKGPSVFPLAPSSKSTSGGTAALGCLVKDYFPEPVTVSWNSGALTSGVHTFPAVLQSSGLYSLSSVVTVPSSSLGTQTYICNVNHKPSNTKVDKKVEPKSCDKTHTCPPCPAPELLAGPSVFLFPPKPKDVLMISRTPEVTCVVVDVSHEEPEVKFNWYVDGVEVHNAKTKPREEQYNATYRVVSVLPVLHQDWLNGKEYKCKVSNDALPAPIEETISKAKGQPREPQVYTLPPSRCELTKNQVSLSCAVKGFYPSDIAVEWESNGQPENNYKTTPPVLDSDGSFFLVSKLTVDKSRWQQGNVFSCSVMHEALHNHYTQKSLSLSP
light: B1 light
notes: Heterodimerized IgG1 Fc variant; also called 04H1637-Kn462/04L1610-lam1//04H1637-Hl441/04L1610-lam1
B2: the “Relative value to KD between G1m and hFcγRs” value was 45.8 ratio in assay [2]; 0.3 ratio in assay [3]; 79.5 ratio in assay [4]; 9.2 ratio in assay [5]; 20.9 ratio in assay [6]. Also, the Binding amount in assay [7] was 0.013 RU per RU of captured antibody. This molecule also gave a Relative binding amount in assay [8] of 1.6 ratio.

B3: 04H1637-Kn461/04L1610-lam1//04H1637-H1443/04L1610-lam1 (antibody, human IgG1, lambda)
heavy 1: B2 heavy 1 with I337E
heavy 2: B2 heavy 2 with I337E
light: B1 light
notes: Heterodimerized IgG1 Fc variant; also called 04H1637-Kn461/04L1610-lam1//04H1637-Hl443/04L1610-lam1
For B3, the “Relative value to KD between G1m and hFcγRs” value came to 226 ratio in assay [2]; 1.2 ratio in assay [3]; 616 ratio in assay [4]; 10.7 ratio in assay [5]; 11.1 ratio in assay [6]. In addition, in assay [7], the Binding amount is 0.025 RU per RU of captured antibody. The Relative binding amount in assay [8] came to 3.1 ratio.

B4: 04H1637-Kn125/04L1610-lam1//04H1637-H1076/04L1610-lam1 (antibody, human IgG1, lambda)
heavy 1: B2 heavy 1 with F239Y, V255T, P312T, D331K
heavy 2: B2 heavy 2 with A241G, V255T, A303S, P312T, A335M
light: B1 light
notes: Heterodimerized IgG1 with the Fc variant of WO 2013/002362; also called 04H1637-Kn125/04L1610-lam1//04H1637-Hl076/04L1610-lam1
As for B4, the “Relative value to KD between G1m and hFcγRs” value worked out at 126 ratio in assay [2]; 1.2 ratio in assay [3]; 406 ratio in assay [4]; 1.6 ratio in assay [5]; 3.6 ratio in assay [6]. Besides, the Binding amount in assay [7] was 0.007 RU per RU of captured antibody. The molecule further registered a Relative binding amount in assay [8] of 0.9 ratio.

B5: 04H1637-Kn462/04L1610-lam1//04H1637-H1445/04L1610-lam1 (antibody, human IgG1, lambda)
heavy 1: B2 heavy 1
heavy 2: B2 heavy 2 with A335K, I337D
light: B1 light
notes: Heterodimerized IgG1 Fc variant; also called 04H1637-Kn462/04L1610-lam1//04H1637-Hl445/04L1610-lam1
Take B5: the “Relative value to KD between G1m and hFcγRs” value in assay [2] was 131 ratio; in assay [3] it was 0.6 ratio; in assay [4], 382 ratio; in assay [5], 18.7 ratio; in assay [6], 37.5 ratio. The Binding amount in assay [7] is 0.03 RU per RU of captured antibody. For the same molecule, the Relative binding amount in assay [8] worked out at 3.7 ratio.
